Data taken from patent publication US20050282743A1, “Molecular interactions in cells” (Arbor Vita Corporation, priority 2001, published 2005).
Where two headings read alike, the source gives them in different places.

Experiments:
Test in all cases: G' assay
[1] = target: T1, GST-SITAC-18 PDZ domain 2 (Homo sapiens (Human)), Q9H190
T1 chain: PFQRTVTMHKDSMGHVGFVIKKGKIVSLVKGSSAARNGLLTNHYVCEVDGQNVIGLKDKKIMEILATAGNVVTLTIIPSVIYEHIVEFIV

[2] = target: T2, GST-SITAC-18 PDZ domain 1 (Homo sapiens (Human)), Q9H190
T2 chain: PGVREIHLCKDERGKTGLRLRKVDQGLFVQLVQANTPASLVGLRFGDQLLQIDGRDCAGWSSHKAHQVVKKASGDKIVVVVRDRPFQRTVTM

[3] = target: T3, GST-GRIP 1 PDZ domain 3 (Homo sapiens (Human)), Q9Y3R0
T3 chain: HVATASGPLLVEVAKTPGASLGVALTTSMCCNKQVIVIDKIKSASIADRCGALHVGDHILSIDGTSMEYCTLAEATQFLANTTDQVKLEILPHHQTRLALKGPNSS

[4] = target: T4, GST-KIAA0340 PDZ domain 1 (Homo sapiens (Human)), Q86UR5
T4 chain: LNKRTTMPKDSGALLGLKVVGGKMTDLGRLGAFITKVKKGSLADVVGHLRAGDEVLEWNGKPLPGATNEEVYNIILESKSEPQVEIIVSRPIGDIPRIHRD

[5] = target: T5, GST-GRIP 1 PDZ domain 5 (Homo sapiens (Human)), Q9Y3R0
T5 chain: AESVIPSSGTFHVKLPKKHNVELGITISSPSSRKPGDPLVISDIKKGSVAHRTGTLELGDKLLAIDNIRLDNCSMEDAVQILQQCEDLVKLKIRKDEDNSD

[6] = target: T6, GST-KIAA1284 PDZ domain 1 (Homo sapiens (Human)), Q9ULD6
T6 chain: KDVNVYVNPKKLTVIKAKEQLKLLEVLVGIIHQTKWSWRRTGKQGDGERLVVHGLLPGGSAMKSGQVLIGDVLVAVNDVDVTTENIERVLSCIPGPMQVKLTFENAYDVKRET

[7] = target: T7, GST-MUPP1 PDZ domain 6 (Homo sapiens (Human)), O75970
T7 chain: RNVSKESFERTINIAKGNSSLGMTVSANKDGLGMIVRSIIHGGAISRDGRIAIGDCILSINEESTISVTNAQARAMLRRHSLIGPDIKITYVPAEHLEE

[8] = target: T8, GST-PTN-4 PDZ domain 1 (Homo sapiens (Human)), P29074
T8 chain: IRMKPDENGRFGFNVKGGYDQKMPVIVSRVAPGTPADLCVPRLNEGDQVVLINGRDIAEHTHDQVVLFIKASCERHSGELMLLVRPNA

[9] = target: GST-DLG2 PDZ domain 1 (Homo sapiens (Human)), Q15700
[10] = target: T9, GST-Connector Enhancer PDZ domain 1 (Homo sapiens (Human)), Q969H4
T9 chain: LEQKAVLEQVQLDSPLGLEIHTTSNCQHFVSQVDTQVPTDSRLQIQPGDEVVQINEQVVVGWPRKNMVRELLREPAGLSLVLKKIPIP

[11] = target: T10, GST-Syntrophin 1 alpha PDZ domain 1 (Homo sapiens (Human)), Q13424
T10 chain: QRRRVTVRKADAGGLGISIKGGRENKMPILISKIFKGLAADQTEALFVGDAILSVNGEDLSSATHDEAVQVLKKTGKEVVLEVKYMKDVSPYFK

[12] = target: T11, GST-EZRIN Binding Protein 50 PDZ domain 2 (Homo sapiens (Human)), O14745
T11 chain: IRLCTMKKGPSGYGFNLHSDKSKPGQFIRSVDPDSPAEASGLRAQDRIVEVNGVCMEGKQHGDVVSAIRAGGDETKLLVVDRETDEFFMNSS

[13] = target: T12, GST-PDZK1 PDZ domains 2, 3, 4, Q5T2W1
T12 chain: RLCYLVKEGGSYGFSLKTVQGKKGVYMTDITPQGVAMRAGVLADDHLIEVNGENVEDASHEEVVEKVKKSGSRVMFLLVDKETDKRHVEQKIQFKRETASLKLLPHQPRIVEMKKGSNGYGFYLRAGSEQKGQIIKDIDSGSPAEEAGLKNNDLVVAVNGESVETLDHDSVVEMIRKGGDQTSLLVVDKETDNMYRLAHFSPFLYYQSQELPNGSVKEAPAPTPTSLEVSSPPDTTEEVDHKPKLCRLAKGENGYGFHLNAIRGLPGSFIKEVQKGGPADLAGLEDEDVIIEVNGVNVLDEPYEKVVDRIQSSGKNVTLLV

[14] = target: T13, GST-MUPP1 PDZ domain 8 (Homo sapiens (Human)), O75970
T13 chain: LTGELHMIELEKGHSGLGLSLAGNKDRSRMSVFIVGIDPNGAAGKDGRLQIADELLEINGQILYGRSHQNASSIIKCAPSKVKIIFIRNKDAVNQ

[15] = target: GST-PIST PDZ domain 1 (Mus musculus (Mouse)), Q8BH60
[16] = target: T14, GST-MUPP1 PDZ domain 1 (Homo sapiens (Human)), O75970
T14 chain: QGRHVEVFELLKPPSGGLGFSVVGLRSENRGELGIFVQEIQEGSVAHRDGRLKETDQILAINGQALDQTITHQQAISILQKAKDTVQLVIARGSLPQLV

[17] = target: T15, GST-MUPP1 PDZ domain 2 (Homo sapiens (Human)), O75970
T15 chain: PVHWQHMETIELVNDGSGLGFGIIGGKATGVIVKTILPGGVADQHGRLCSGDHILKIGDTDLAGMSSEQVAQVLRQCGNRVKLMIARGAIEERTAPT

[18] = target: T16, GST-NeDLG PDZ domain 1 (Mus musculus (Mouse)), P70175
T16 chain: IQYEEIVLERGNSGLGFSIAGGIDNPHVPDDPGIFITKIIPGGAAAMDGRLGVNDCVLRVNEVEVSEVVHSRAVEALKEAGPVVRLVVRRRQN
Note: key of the grades not given here.

Binder: ILNSIQVMRAQMNQIQSVEV (modifications not checked) [ephrin B2]
- Classification [1]: 3 A450 class
- Classification [2]: 3 A450 class
- Classification [3]: 1 A450 class
- Classification [4]: 2 A450 class
- Classification [5]: 1 A450 class
- Classification [6]: 1 A450 class
- Classification [7]: 2 A450 class

Binder: QISPGGLEPPSEKHFRETEV (modifications not checked) [TAX]
- Classification [8]: 2 A450 class
- Classification [9]: 2 A450 class
- Classification ([10]; remark: other sources report otherwise): 1 A450 class

Binder: VPGALDYAAFSSALYGESDL (modifications not checked) [a-actinin 2]
- Classification [11]: 3 A450 class

Binder: PIPAGGCTFSGIFPTLTSPL (modifications not checked) [KIA 1481]
- Classification [12]: 2 A450 class
- Classification [13]: 2 A450 class

Binder: HDFRRAFKKILARGDRKRIV (modifications not checked) [alpha-2A Adrenergic receptor]
- Classification [1]: 4 A450 class
- Classification [14]: 1 A450 class
- Classification [2]: 4 A450 class
- Classification [4]: 1 A450 class
- Classification [6]: 1 A450 class
- Classification [7]: 2 A450 class

Binder: AWDDSARAAGGQGLHVTAL (modifications not checked) [LPAP]
- Classification [12]: 4 A450 class
- Classification [15]: 1 A450 class
- Classification [3]: 1 A450 class
- Classification [13]: 3 A450 class

Binder: ELLQFCRTPNPALKNGQYWV (modifications not checked) [CSPG4 (chondroitin sulfae proteoglycan 4, melanoma-associated)]
- Classification [16]: 2 A450 class
- Classification [14]: 2 A450 class
- Classification [17]: 5 A450 class
- Classification [5]: 1 A450 class

Binder: KTMPAAMYRLLTAQEQPVYI (modifications not checked) [MINT-1]
- Classification [16]: 1 A450 class
- Classification [17]: 1 A450 class

Binder: VGTLLLERVIFPSVKIATLV (modifications not checked) [AdenoE4 typ9]
- Classification [15]: 1 A450 class
- Classification [18]: 1 A450 class
- Classification [10]: 3 A450 class

Binder: TQGFPGPATWRRISSLESEV (modifications not checked) [NMDA Glutamate Receptor 2C (cysteine-free)]
- Classification [11]: 4 A450 class
- Classification [18]: 2 A450 class
- Classification [8]: 2 A450 class
- Classification [9]: 4 A450 class
